Measured values as given in PMC11957415, “Size-exclusion chromatography–small-angle neutron scattering system optimized for an instrument with medium neutron flux” (Journal of Applied Crystallography, 2025).

T1: hydrogenated KaiC, phosphorylation mimic S431D (Synechococcus elongatus PCC 7942, UniProt Q79PF4 1-519, S431D)
T1 construct: Clock protein KaiC from Synechococcus elongatus PCC 7942, phosphorylation site S431 substituted with aspartate; KaiB and KaiC were mixed at a molar ratio of 12:6, and M from I(0) of hC alone is 334 ± 11 kDa; The buffer contained 3 mM ATP and 5 mM MgCl2; also called hC; h-KaiC; source: expressed and purified as previously described
T1 sequence (looked up): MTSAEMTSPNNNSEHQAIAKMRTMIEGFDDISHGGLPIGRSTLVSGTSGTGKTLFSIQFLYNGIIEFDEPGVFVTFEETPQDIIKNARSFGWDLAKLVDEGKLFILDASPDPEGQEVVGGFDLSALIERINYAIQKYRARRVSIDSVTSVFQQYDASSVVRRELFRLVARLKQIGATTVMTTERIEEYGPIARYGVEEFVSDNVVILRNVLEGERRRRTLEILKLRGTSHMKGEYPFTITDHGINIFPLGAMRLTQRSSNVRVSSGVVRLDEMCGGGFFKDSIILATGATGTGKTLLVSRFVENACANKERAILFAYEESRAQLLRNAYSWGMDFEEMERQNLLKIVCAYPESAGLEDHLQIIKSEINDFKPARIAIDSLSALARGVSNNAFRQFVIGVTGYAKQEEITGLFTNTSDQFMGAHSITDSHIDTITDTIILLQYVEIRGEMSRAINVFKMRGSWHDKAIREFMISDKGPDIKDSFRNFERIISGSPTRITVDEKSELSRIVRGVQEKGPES


Assays:
[1] = biological target: T1, hydrogenated KaiC, phosphorylation …; test: SEC; KaiB and KaiC mixed at a molar ratio of 12:6 and incubated at 303 K for 48 h; Superdex 200 Increase 10/300 GL, 0.5 mL/min; 98% D2O buffer with 50 mM sodium phosphate pH 7.8, 150 mM NaCl, 5 mM MgCl2, 0.5 mM EDTA, 1 mM DTT, 3 mM ATP, 50 mM glutamic acid, 50 mM arginine; settings: both partners purified
[2] = biological target: T1, hydrogenated KaiC, phosphorylation …; test: SEC-SANS; BC complex fraction from SEC stored in the SANS cell (stopping mode), 298 K, 98% D2O clock protein buffer; compared with hC alone; settings: both partners purified

Row | Binder | binding result [1] | binding result [2]
1 | 71% deuterated KaiB (natural protein, Synechococcus elongatus PCC 7942, UniProt Q79PF5 1-102, looked up, partially deuterated; degree of deuteration 71% (MALDI-TOF mass spectrometry), Clock protein KaiB from Synechococcus elongatus PCC 7942; also called 71dB; 71d-KaiB; source: bacterial cells grown in M9 minimal H2O/D2O mixture media with hydrogenated and deuterated glucose, purified) MSPRKTYILKLYVAGNTPNSVRALKTLKNILEVEFQGVYALKVIDVLKNPQLAEEDKILATPTLAKVLPLPVRRIIGDLSDREKVLIGLDLLYGELQDSDDF | binds | 
2 | hydrogenated KaiB (natural protein, Synechococcus elongatus PCC 7942, UniProt Q79PF5 1-102, looked up, Clock protein KaiB from Synechococcus elongatus PCC 7942; also called hB; h-KaiB; source: expressed and purified as previously described) MSPRKTYILKLYVAGNTPNSVRALKTLKNILEVEFQGVYALKVIDVLKNPQLAEEDKILATPTLAKVLPLPVRRIIGDLSDREKVLIGLDLLYGELQDSDDF |  | binds
